Source: the supplement of paper PMC9112550, “Optimization of the antimicrobial peptide Bac7 by deep mutational scanning” (BMC Biology, 2022)

Test system: Escherichia coli TOP10
Assay: shrunken log2 fold change of peptide-encoding DNA abundance (4.5 h post-induction vs induction); higher = less antimicrobial activity (less host growth inhibition)
Conditions: time post-induction: 4.5 h; library: site-saturation at positions 5, 18, 19, 20
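Also: peptides expressed intracellularly from a pBAD plasmid library in pooled LB shake-flask culture, induced with 0.3% L-arabinose, DNA abundance read by NGS, three biological replicates, DESeq2 with apeglm shrinkage.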

Sequence	shrunken log2 fold change
RRIRSRPPRLPRPRPRPGLYPRP	-0.106
RRIRYRPPRLPRPRPRPGLHPRP	-0.265
RRIRLRPPRLPRPRPRPWFEPRP	-0.218
RRIRHRPPRLPRPRPRPPMGPRP	0.343
RRIRGRPPRLPRPRPRPQSRPRP	0.328
RRIRPRPPRLPRPRPRPHGGPRP	0.216
RRIRWRPPRLPRPRPRPDRSPRP	0.0405
RRIRERPPRLPRPRPRPGTGPRP	0.229
RRIRKRPPRLPRPRPRPMFEPRP	0.312
RRIRERPPRLPRPRPRPMQEPRP	0.216
RRIRGRPPRLPRPRPRPLCPPRP	0.422
RRIRKRPPRLPRPRPRPTNWPRP	0.689
RRIRRRPPRLPRPRPRPSQMPRP	0.0447
RRIRMRPPRLPRPRPRPQWCPRP	-0.0474
RRIRFRPPRLPRPRPRPQSRPRP	0.0257
RRIRSRPPRLPRPRPRPDMVPRP	-0.00858
RRIRIRPPRLPRPRPRPDNYPRP	-0.199
RRIRFRPPRLPRPRPRPRTLPRP	0.165
RRIRLRPPRLPRPRPRPGPLPRP	0.287
RRIRNRPPRLPRPRPRPVVMPRP	0.00659
RRIRRRPPRLPRPRPRPLFCPRP	0.24
RRIRDRPPRLPRPRPRPCDRPRP	-0.0944
RRIRERPPRLPRPRPRPTIIPRP	-0.664
RRIRPRPPRLPRPRPRPCPMPRP	-0.156
RRIRDRPPRLPRPRPRPCIKPRP	0.0183

Sequence	shrunken log2 fold change
RRIRRRPPRLPRPRPRPCCFPRP	0.151
RRIRDRPPRLPRPRPRPERRPRP	0.0137
RRIRNRPPRLPRPRPRPHCSPRP	-0.095
RRIRGRPPRLPRPRPRPPCNPRP	0.489
RRIRGRPPRLPRPRPRPYYDPRP	-0.294
RRIRLRPPRLPRPRPRPSSTPRP	-0.278
RRIRVRPPRLPRPRPRPKLWPRP	0.127
RRIRCRPPRLPRPRPRPTANPRP	0.0466
RRIRYRPPRLPRPRPRPIRKPRP	-0.0667
RRIRKRPPRLPRPRPRPSIYPRP	-0.353
RRIRNRPPRLPRPRPRPKHDPRP	-0.287
RRIRNRPPRLPRPRPRPSSTPRP	-0.201
RRIRERPPRLPRPRPRPWDKPRP	-0.00884
RRIRKRPPRLPRPRPRPLGLPRP	0.159
RRIRIRPPRLPRPRPRPCKLPRP	-0.167
RRIRWRPPRLPRPRPRPGAHPRP	0.32
RRIRVRPPRLPRPRPRPTKTPRP	0.0337
RRIRWRPPRLPRPRPRPIEYPRP	-0.224
RRIRKRPPRLPRPRPRPQCPPRP	-0.000549
RRIRDRPPRLPRPRPRPEMSPRP	0.00748
RRIRIRPPRLPRPRPRPCEQPRP	0.0927
RRIRCRPPRLPRPRPRPALSPRP	0.282
RRIRSRPPRLPRPRPRPDDMPRP	0.0939
RRIRMRPPRLPRPRPRPGDWPRP	1.33
RRIRDRPPRLPRPRPRPAKRPRP	-0.161

Sequence	shrunken log2 fold change
RRIRERPPRLPRPRPRPEYMPRP	-0.0257
RRIRPRPPRLPRPRPRPSEDPRP	0.485
RRIRVRPPRLPRPRPRPFTCPRP	-0.216
RRIRRRPPRLPRPRPRPYWEPRP	0.0331
RRIRCRPPRLPRPRPRPGGVPRP	0.42
RRIRLRPPRLPRPRPRPRDGPRP	1.06
RRIRSRPPRLPRPRPRPYQPPRP	-0.161
RRIRVRPPRLPRPRPRPFWIPRP	-0.182
RRIRSRPPRLPRPRPRPRWTPRP	0.0635
RRIRARPPRLPRPRPRPSGEPRP	0.65
RRIRLRPPRLPRPRPRPIPQPRP	-0.0537
RRIRGRPPRLPRPRPRPGSEPRP	0.864
RRIRCRPPRLPRPRPRPAFYPRP	-0.146
RRIRGRPPRLPRPRPRPECQPRP	0.381
RRIRGRPPRLPRPRPRPCYHPRP	-0.345
RRIRMRPPRLPRPRPRPLKYPRP	-0.0456
RRIRLRPPRLPRPRPRPGMNPRP	-0.72
RRIRNRPPRLPRPRPRPHAGPRP	0.00938
RRIRQRPPRLPRPRPRPQHMPRP	0.0284
RRIRARPPRLPRPRPRPSWNPRP	-0.19
RRIRSRPPRLPRPRPRPHPGPRP	0.00228
RRIRMRPPRLPRPRPRPCTVPRP	-0.0102
RRIRARPPRLPRPRPRPCRAPRP	0.261
RRIRTRPPRLPRPRPRPDNYPRP	-0.0497
RRIRFRPPRLPRPRPRPHPTPRP	-0.133

Sequence	shrunken log2 fold change
RRIRCRPPRLPRPRPRPRMSPRP	0.041
RRIRGRPPRLPRPRPRPRRGPRP	0.813
RRIRVRPPRLPRPRPRPTWTPRP	0.221
RRIRKRPPRLPRPRPRPMMGPRP	-0.0567
RRIRPRPPRLPRPRPRPDNIPRP	-0.406
RRIRPRPPRLPRPRPRPYGHPRP	0.0138
RRIRPRPPRLPRPRPRPCSQPRP	-0.257
RRIRRRPPRLPRPRPRPNIVPRP	-0.171
RRIRFRPPRLPRPRPRPFYPPRP	-0.824
RRIRKRPPRLPRPRPRPKDFPRP	-0.0746
RRIRRRPPRLPRPRPRPADNPRP	0.111
RRIRLRPPRLPRPRPRPDYCPRP	0.0561
RRIRNRPPRLPRPRPRPLYQPRP	-0.357
RRIRLRPPRLPRPRPRPHDEPRP	0.0746
RRIRHRPPRLPRPRPRPYSWPRP	-0.345
RRIRGRPPRLPRPRPRPCSGPRP	-0.111
RRIRMRPPRLPRPRPRPTKAPRP	0.26
RRIRWRPPRLPRPRPRPWLHPRP	-0.0248
RRIRIRPPRLPRPRPRPMITPRP	-0.616
RRIRSRPPRLPRPRPRPSPEPRP	0.0709
RRIRDRPPRLPRPRPRPERAPRP	0.0972
RRIRERPPRLPRPRPRPHWHPRP	-0.298
RRIRSRPPRLPRPRPRPMFIPRP	-0.212
RRIRHRPPRLPRPRPRPTFHPRP	-0.326
RRIRIRPPRLPRPRPRPSSRPRP	-0.538

Sequence	shrunken log2 fold change
RRIRMRPPRLPRPRPRPISNPRP	-0.0517
RRIRHRPPRLPRPRPRPVGDPRP	-0.206
RRIRNRPPRLPRPRPRPRLMPRP	-0.142
RRIRIRPPRLPRPRPRPTGYPRP	-0.73
RRIRYRPPRLPRPRPRPMGCPRP	-0.0637
RRIRRRPPRLPRPRPRPPVAPRP	0.769
RRIRERPPRLPRPRPRPTNAPRP	-0.0659
RRIRIRPPRLPRPRPRPRIWPRP	0.063
RRIRNRPPRLPRPRPRPKLCPRP	0.163
RRIRMRPPRLPRPRPRPGDYPRP	0.0762
RRIRHRPPRLPRPRPRPYGMPRP	-0.0262
RRIRRRPPRLPRPRPRPVIDPRP	-0.165
RRIRVRPPRLPRPRPRPIYMPRP	-0.438
RRIRVRPPRLPRPRPRPQCVPRP	-0.218
RRIRPRPPRLPRPRPRPHGVPRP	-0.104
RRIRHRPPRLPRPRPRPIYAPRP	0.0179
RRIRCRPPRLPRPRPRPGPDPRP	0.359
RRIRTRPPRLPRPRPRPRCIPRP	0.0613
RRIRSRPPRLPRPRPRPDIQPRP	-0.274
RRIRQRPPRLPRPRPRPGHMPRP	0.0335
RRIRHRPPRLPRPRPRPEKMPRP	-0.0669
RRIRLRPPRLPRPRPRPGSHPRP	0.0329
RRIRSRPPRLPRPRPRPAVNPRP	0.0811
RRIRNRPPRLPRPRPRPKPEPRP	0.0739
RRIRCRPPRLPRPRPRPWRVPRP	0.149
